Measured values reported in patent US20050042631A1 (US Dept. of Health and Human Services, published 2005).

Target: T1, GST-K-p52 (human, UniProt O75475 1-325, 32P-labeled by HMK where used as Farwestern probe)
T1 construct: The Nru I-EcoR V fragment of p52 cDNA was put in pGEX-2T(K); also called GST-p52; p52 probe; not shown: glutathione-S-transferase from the pGEX-2T(K) vector; heart muscle kinase (K) site and vector linker
Test: Farwestern blot with 32P-labeled GST-K-p52

T1 sequence (O75475 other isoform, or with tags, fused parts or gaps): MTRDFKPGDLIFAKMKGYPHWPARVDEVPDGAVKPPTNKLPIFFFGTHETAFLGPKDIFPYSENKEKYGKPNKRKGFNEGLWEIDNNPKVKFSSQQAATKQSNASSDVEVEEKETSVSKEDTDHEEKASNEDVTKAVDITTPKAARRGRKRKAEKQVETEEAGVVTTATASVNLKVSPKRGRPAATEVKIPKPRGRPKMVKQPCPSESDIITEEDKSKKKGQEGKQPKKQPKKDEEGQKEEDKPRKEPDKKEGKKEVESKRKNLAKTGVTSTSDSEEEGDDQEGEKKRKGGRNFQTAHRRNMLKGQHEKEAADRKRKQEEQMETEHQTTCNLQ

B1: GST-RS (GST-fused RS domain of ASF/SF2) (other, UniProt Q07955 198-248, looked up)
chain: RSPSYGRSRSRSRSRSRSRSRSNSRSRSYSPRRSRGSPRYSPRHSRSRSRT
notes: domain: RS domain; not shown: glutathione-S-transferase
B1: no binding.
